Experiment [1] addresses ビオチン化EpoR(Abbott CHO細胞由来 ref.#RB69084:4) (UniProt P19235). Put plainly: immunofluorescence microscopy on EpoR-coated sheep red cells, MAB307 plus Alexa488 anti-mouse IgG Fc.
The next experiment has as its target T1, 全長組換えヒトEPO受容体(CHO細胞に発現) (human, UniProt P19235 25-508).
T1 construct: whole, on cells; also called 組換えEPO受容体を発現するCHO細胞; エリスロポエチン受容体
T1 sequence (looked up): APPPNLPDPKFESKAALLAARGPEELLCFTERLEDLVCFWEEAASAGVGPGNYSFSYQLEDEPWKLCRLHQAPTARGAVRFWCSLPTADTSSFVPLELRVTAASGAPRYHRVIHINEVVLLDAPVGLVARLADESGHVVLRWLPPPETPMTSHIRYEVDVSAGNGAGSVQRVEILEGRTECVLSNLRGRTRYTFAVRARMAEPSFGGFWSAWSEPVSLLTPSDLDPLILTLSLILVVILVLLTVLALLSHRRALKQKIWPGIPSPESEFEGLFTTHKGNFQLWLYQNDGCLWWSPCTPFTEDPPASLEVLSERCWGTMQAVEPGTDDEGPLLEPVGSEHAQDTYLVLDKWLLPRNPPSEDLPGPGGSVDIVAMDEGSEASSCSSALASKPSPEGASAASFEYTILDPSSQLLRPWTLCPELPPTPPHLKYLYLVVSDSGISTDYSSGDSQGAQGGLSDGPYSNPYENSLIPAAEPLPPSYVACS
As to the kind of experiment: competition with 125I-EPO on CHO cells expressing full-length human EPO receptor.

The target of the next experiment is T2, ペプチドSE−3 (human).
T2 construct: also called SE-3; SE-3ペプチド
T2 peptide: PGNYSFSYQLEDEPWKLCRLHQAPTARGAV
Put plainly: ELISA on plate-coated SE-3 peptide (5 μg/ml), anti-human IgG (Fc)-HRP.

Experiment [2] addresses T3, 可溶性EPO受容体(sEPOR)(R&D Systems Cat.#307-ER/LF) (human, UniProt P19235 25-250).
T3 construct: extracellular domain; The ELISA paragraph names only 'soluble EPO receptor' with the catalogue number; also called sEPOR; 固相化エリスロポエチン受容体
T3 sequence (looked up): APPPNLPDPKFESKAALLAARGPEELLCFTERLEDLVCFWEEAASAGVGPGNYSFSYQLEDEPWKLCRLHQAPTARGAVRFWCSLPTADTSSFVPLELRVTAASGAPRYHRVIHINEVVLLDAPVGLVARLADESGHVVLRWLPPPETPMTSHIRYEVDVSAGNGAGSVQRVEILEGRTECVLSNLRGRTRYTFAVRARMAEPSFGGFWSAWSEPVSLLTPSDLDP
As to the kind of experiment: BIAcore (antibody immobilised, soluble human EPO receptor injected), as paragraph 65 attributes it; values not given. (Surface plasmon resonance follows binding to a sensor surface in real time, without labels.)

Experiment [3] concerns the target ヒトエリスロポエチン受容体(UT-7/Epo細胞・F36E細胞上) (human), P19235. As to the kind of experiment: cell-based or functional assay.

Regarding “マウス抗EpoR抗体(R&D Systems Cat.# MAB307) (antibody)”, the immunofluorescence score (0-4 scale) in experiment [1] is 4 of 4.

B1: Ab12 (antibody, V domains shown)
VH: QVQLQESGPGLVKPSETLSLTCTVSGASISSYYWSWIRQPPGKGLEWIGYIYYSGSTNYNPSLKSRVTISVDTSKNQFSLKLRSVTAADTAVYYCARERLGIGDYWGQGTLVTVSS
VL: DIQLTQSPSSLSASVGDRVTITCRASQGIRNDLGWYQQKPGKAPKRLIYAASSLQSGVPSRFSGSGSGTEFTLTISSLQPEDFATYYCLQHNTYPPTFGQGTKVEIK
notes: Human antibody (XenoMouse XG2); also called AB-ABT2-XG2-012; ABT2-XG2-012
Turning to B1, the figures for the binding result (in the experiment with 全長組換えヒトEPO受容体(CHO細胞に発現); in the experiment with ペプチドSE−3; in experiment [2]) were “binds”, “no binding (tested: 5 μg/ml Ab12)” and “binds”, respectively. Besides, the F36E細胞の増殖:EPO対照との最大応答の差(モル当量基準) in experiment [3] is 10 倍.

B2: Ab198 (antibody, V domains shown)
VH: QVQLVESGGGVVQPGRSLRLSCVASGFTFSSYGMHWVRQAPGKGLEWVAVISYDGSNKYYADSVKGRFTISRDNSKNTLYLQMNSLRVEDTAVYYCARDHGGRYVYDYGMDVWGQGTTVTVSS
VL: DIQMTQSPSSVSASIGDRVSITCRASQGISSWLAWYQQKPGKAPTLLIYAASTLQRGVPSRFSGSGSGTDFTLTISSLQPEDFATYFCQQANSFPFTFGPGTKVDIK
notes: These were not used; also called AB-ABT2-XG2-198; ABT2-XG2-198
Regarding B2, the binding result (with 全長組換えヒトEPO受容体(CHO細胞に発現); in experiment [2]) was “binds” in each case.

(Values after patent publication JP2006523083A (dated 2006).)
